For 2 molecules, VNT: minimum antibody concentration that neutralises C/PHI/3/1994 virus results are on record in publication PMC13216289.

This assay deals with FMDV C/PHI/3/1994 virus (Foot-and-mouth disease virus C/PHI/3/1994).

Changes are numbered by the printed parent chain.

B1: Ab17 (antibody, V domains shown)
VH: QVQLRESGPSSLKPSQTLSLTCAVSGFSLSTYAVGWVRQAPGKALEWVGDITSSGDTFYNPALKSRFSITKDNSKNQVSLSVGSVTPEDTATFYCTRLTCGDDCSTAWHNFDAWGQGLLVTVSS
VL: SYELTQPTSVSVALGQTAKITCSGDLLDVQYTQWYQQKPGQGPVRVIYKDSERPSGISDRFSGSSSGKTATLIISGAQTEDEADYYCQSTDSSQYGIFGRGTTLTVL
Regarding B1, the VNT: minimum antibody concentration that neutralises C/PHI/3/1994 virus turned out to be 213 nM.

B2: Ab49 (antibody, V domains shown)
VH: QVQLRESGPSLVKPSQTLSLTCTVSGFSLTNYAVGWVRQAPGKAIQSLSIISTTGDTYYNPALKSRLSITKDNSKSQVSLSVSSVAPEDTATYYCVKFCGNADSAGHGWGCDYGDNENWGQGLLVTVSS
VL: B1 VL with V29E, I73T, T90F, D91Y, Q94T, Y95D, G96P, I97V, R100S
With B2, the VNT: minimum antibody concentration that neutralises C/PHI/3/1994 virus was 1150 nM.
